Laboratory results: the domain aggregation screens of Martell et al. (2025)

Test: soluble fraction after stress (log2 fold change); higher = more stays soluble; pooled small domains, quantitative proteomics
Conditions: stress: 75 degC
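Also: 20 min heating vs room temperature control held 20 min.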

Sequence | soluble fraction (log2)
HMKKATYDVMVREALVSFKKKGATLQSIKKKIKADYAIEANATAVKSAIQKGMEAGSIRKSYDLYFFMD | -2.8
HMKKDDLKQINGIGTTIEKKLNEIDIYNFYQISNLSKEDIETISEKIKTFPGKIERDNWVGQAQELL | 0.0235
HMKKIFIDAPLDTMITIPKDTTHHLLTVFRHKMEKPVLVGGSDGRTGVYQIQDVVDGEASAKLVGDIQ | 0.738
HMKKISAKQQQILDYISSYSLEHGYPPSVREIGAEMGLRSPSTVHAHLKKLQEAGYLEPNEHKSRALTP | -0.146
HMKKITTANPLDINRATLAQLDTLPGIGPVTAERIIAYRSKVGRINSLDELKKISGLGGMKFEEIKPLLRV | 0.0978
HMKKKLPRYLQEQKYGNGMVFYRYNPTARYIDEGIVTRTNLGSDLSIAKKKANEFNKLIDAFLQQQSE | -1.16
HMKKMSFKEAFLKYVEIKDNPYNMESVKMLVSLQPLIVKAYSILGVDKVRRLNYVKTKIQDAIINGD | -2.7
HMKKNLELGLLPHEVKSILGEPDFIDTITDIDGIRYDMWSYTKLNVTKRLYFEDLFLVRMEE | -3.31
HMKKNNTTPIPKTLNYVNIKGLSNEAVERLNKHKPSTLGQASRLEGITPAATSLISIAIKKNQLLEKAES | 0.0664
HMKKPAERRKELVDAAAHLFAEKGYENTSVRDILDAVGGAPGMFYYYFKSKQDIYVAVMEDF | -3.71
HMKKPANLISEDRMVEVLYDVIIINTAKGVNKQLLQNNINNPLNYIYRSHGIDSLQFAESNAYYTS | -0.563
HMKKSGFFSAGDRIQLTDNKGRQYSFNITEGKEFHTHQGFIKHDDLIGMPEGSVVSINSTTGVVQKFMAF | 0.32
HMKKSIRIFELMKAKVAAEIFDQMILEGKIEDVFDIIVRLKDSNVSNIMKTMSVENSSRLVQKLERYNKD | -3.12
HMKKVRIPDDPEEAYRKALKTAMNIVGYKDNTEFTLREKLSERGYSGETVDAVAEFMKSKGYV | -0.0562
HMKKVTMQDIANILNISRVTVWKVLNNQPGVSKQLRDQILLTAKETGYLKPGQEAEAYLEENNIYFEG | -0.272
HMKKYDIKEAQEIAEINRIPGLVTTSHGRRVYFDPKIMQYVSEEQIVKKYGQKTVKMLDQWYVSNILNK | -0.21
HMKKYLIIDAANEKIIFKIIDNNKTYTNDYENSRKNFDRFAVLLFNFLNKNMISFDTIDKAL | -0.118
HMKLARGEFEIMAKFIKEISGISLEQNKTYLIESRLSDLAESEGVKTFSDFFFKAKFNKILKEKIIDAI | -1.13
HMKLHFTINGVHYTWYKQFIRGIQIRELGNIPREDELYLDLPDGWKDDFIEDDEIVDLARPGVEHFISRAK | -4.84
HMKLIIVPNLVGQSRRSVEISLQQIGLRIDTVYTEFNPDYPKGTVAWQFPKSGDHIKKGMGLQITVSQG | -0.391
HMKLINEDLNNEIVFEENKVNLLVIENKKKFVQFIQEIIKQINGDEGKFSLFDINTELKIHDKIDII | 0.174
HMKLIPLTDMRGQLRSGAPLPWGVRDAQGNLLLGKGHVIASDDMLEALLARGMFVDAEEAKAARG | 0.0132
HMKLISVAVMRASDAAEIAGGTDSKTLMYRAGLGLFQSWDWHGKIDIVTGSGNNAGDGYVLALLL | 0.14
HMKLNKRQYAYQVIRSRILDGTYVPGQRIIIDQIAKEVNSSHIPVREAIHQLESEQLIDYEPNIGAIVKG | -0.242
HMKLSALRDKIKEHLLRQIQNGELQVGKTINLAALSRVTGISVTPIREALTQLEQAQVIQAVPNRGFVVA | -0.418
HMKLSIGGTIEKLRRNKGLSHQQLANALGVTPDTVEKWEINAAYPDITLLSPIARLLGTTLDALLMF | -1.77

Sequence | soluble fraction (log2)
HMKLSKLTKPELDEIFRNANFTEEEEKVFWLLARGKSLEQISAKTFLPIATVNRRVKSIKDKIG | -0.436
HMKLTKPKLIQLIHIAKSKLNMDELSYRVLLDNLTGKTSTTKMTVGELLKVYESMKDKGFKPQV | -0.993
HMKLTTRQTEIINIVKAEQPISGEKIAQNLGLSRATLRNDLSILTMTGLLDAKPKVGYFYTGQ | -0.976
HMKLVESALSILEEAVDRDFHGNLGDAARYFDIPYQTIYSWLKSRKRVPSLRALEPVLEKLGVSFTT | -2.01
HMKLVTIPNVIGKTKEDAMKTLKDLGVTVTVETKESEKDDGTVIAQSKAEGTKLTAGENVTITVSKKKK | ≥ 1.04
HMKMATITKRTNPSGAVVYRAQVRVKREGYPPYSESRTFSKKSLATEWAKRREFEIETNPDLLFN | -1.76
HMKMLEINDNDSVGLKNLKTQYNHNQKVIENFQLEINKVINDGELPDKYLLDGMEKYQKLNMQIMSTIEKQ | 0.0503
HMKMPNGYGSVYKLSGNRRKPWAARVTDGWVNDTKTKKSKQKYKFIGFYETRKEALLALADYNANP | -2.05
HMKMSLKENLLELLQKSSGEFLSGERAAETLGVSRTAVWKAVTSLKNEGYNIESVTNRGYRFS | -0.34
HMKNANGYGSITKLKGNRRKPYMVRITVGRDENGFPIRKVLGYYSSKANAVAALSDYNREPYDI | -1.78
HMKNENSLLVSRLAEEKIINRAKLVLMEYLKLSEPQAHRYIEKQAMDLQISRAEVAARVLETYE | -1.35
HMKNEVENLSYMINRIIEYRDLNNLSNKNLANKIGISEALLSYILNGRRKLSKEIQRKIALFLLND | -1.99
HMKNFAPVWGEEGAEFGKEVDTGFRLRIVEKEKDVNDLFEVIQKHTIQSQWKPGSTGTESIYKRI | 0.886
HMKNHIEERRKARGMTQQQLASELGVSRQTIISLENGKYNPSILLAHSIARLFGERIEDIFILR | -2.45
HMKNINTNIGKNLKRIRKLRGLTIDALATSSGVSKSMISEIERGIRNPSITIIWSLANALKTPLNYFLKE | -1.46
HMKNKFYEEFSDYIFKHTGIHYAEANYYQLDARINKLMKFLETSDENDVLKAIQGGAVKDQRVHQMIVDLA | -2.16
HMKNKRERLGIISEILRMQVIGSQEELLDILRAKGYDVTQATLSRDLKVLKVAKTPLSNGAYKYVLPPQ | -1.39
HMKNLSQAEFMYLFKILAFGSTDPDNHPEMAATGMEIAKMLQGLLLSGNVLADILRKNQNVQFWL | 0.0572
HMKNNITFSEFLHEVDNGRVIKVNIQGNNITGILADGKSFNTYTPNDPSLIEKLTSKGVSISATPI | 0.13
HMKNNLKGSPIIIAGGYGVGSKENFNLLFDLAKVLNAEVGASRAAVDAGFVEHDRQIGQTGVTVRP | 0.143
HMKNNYQYIVDQIKQLILDGELIVGDRLPSERDLSEMYQVSRASVREALKALETIGLLESRHGGGNYIVNH | -1.28
HMKNQIGFKIKNARRKASISQADLSAKLGISSSYLNLIESGKRNVNVDLLLKVSDVLNIELKDLSK | -2.06
HMKNTYTVVSGDTLWGIASRKLGGGSNWTKIYDANAATIESVANRRRGGRGSDHGHWIYPGTVLTI | -0.298
HMKNYYRILGLNIDAEYEEIKAAYRILAQRHHPDKGGAAAEFRLIQEAYDILSNPLTKRNYDADLLATLN | -2.65
HMKPDMAVIVGSRTLTFATTTDRQILVLRTDGTMVNRLSMKAGETRTITLPAGVYIVNGKKIIV | -2.35
HMKPFSLESYKAFVVKRLGLFPETSSAQMHDWLKEEYPDFPLITPRTVYNFVMKIRQDYGIAKV | -3.43

Sequence | soluble fraction (log2)
HMKPFVVVPIDQVRVGMFIQLDLGWMQHPFPVGSFRVASEAQIDTLRSLDLESVRYLPAKSDPAFQQP | -2.82
HMKPGNFILDLLRTYGQKGTSAQNLMSSSRMFNFSENLIRVTLSRLAARGLIENFERGHYRLAE | -0.488
HMKPGTIVTGVVVDIKSDVVVVNAGLKSEGIVPIEQFRNDRGELEVAIGDEVKVALDSLENGFGETVLSRE | -0.435
HMKPQKRYLFEEVLTFLKHNSEKSFNYKQLGAAMEISNESDRFTLLETLEELKHQGFVVEKEIGKYQAKE | -1.25
HMKPRVTVVTLGVDDLERAVRFYAEGLGFPTEGIVGREFEFGAVAFFDMQPGLRLALWPRRSLAHDSGLP | -0.373
HMKPSISKIYALWGVLQRSGKIKSQDKAALDAFVRKYTGVDHVKWLDESQARKIIEILKQMIA | -1.55
HMKPSKTDEAEYWLMERLEEGPQPAGDLIRIGEEFGYTPKILRDAGERFNMERYKDGLDHWMWKLPN | -0.154
HMKPVTNHTVKFYVDDVLWKTVTVKHGGNVRLADLPMSDGKTFVGWSESVVNVTKDLTVFALFS | -1.96
HMKPVYNKVEIPRGGEYALVLSDGTKVHLNSMSSLRFPVAFTTGKREVELQGEAYFEVSKTGQPFIVNV | 0.219
HMKQGKGIIVVDGKLMPEDFNVATLSLDEVESITVLKGEKAVALYGEKAKEREVLLITTQKG | 0.427
HMKQKAEVIFVSKTIMEALSKGVRLTPENLKSETELPIDDFYARLKELIDNGSVVESRENGESYLEAGN | -0.0162
HMKQLNKRQDDILSLAEKEGYVSVENLAKTFTVSQQTIRRDINYLSDHEFLVRTHGGAFYSSG | -0.252
HMKQNNYATKKELNFFVSRLISLLSYRDFFNPIEKKESMINNIEAIFTRSSLTSQELRTLHGIISNLVE | -3.57
HMKQPNSYGSVHKLPGKRRKPWRVRKTSGWLLDEQSGTVKQQYITIGYYATKQEALIALADYNENP | -1.55
HMKQQFTREQIIELMYKAYKKHKKKLNRVEIKKEKALPSYVTIGRYLNETSIKKIWEIVLSEKE | -1.22
HMKQVEVESVIGKSEEAANSILTKAGLKVNIGYKEDSSKPTDTVLSQDPAPGEKVDEGTTVTIVVNNYKKP | 0.139
HMKRANGTGSVFKLNGKRRNPWVARVTQGFDDKGRQKYVNLGYYKTKREAENELLSYNSNPYDAN | -0.238
HMKREWKDDDPTVPAGWKVAWTTTSDNRAKIAFMSPDKKIFHSRKSALQHMLAAGTYAQSDIEKMTKGL | -0.315
HMKRFSPPSIEEVDSYIREKGYTVDAERFVNFYESKGWYVGKNKMKNWRAAVATWQKEDNKRN | -0.226
HMKRGDAYASEMIARLKEAHLIVMEGTLYPLLTRLKNDGLLSYRWEESTQGPPRKYYSITPVG | 0.151
HMKRITGHLTEKNKKWYAVINLYDTDGKRKEKWQGLNLDANKGNKREAEHRLRQILDQYNTD | -0.258
HMKRITKKQLSQQLEQFFSSQPGKKLTLKDIFRALHLDTHPLKMLAMDIMEEMAWDDFITKKGENAYQLNT | -0.916
HMKRKAIDQSWQPDKEAIEILSKAGVNEEFIKEEIPEFILYWSEKGEESDTWNSKFIAQVRRQWAKTQH | -0.121
HMKRQATLQIGSKRFGMDDLYFKFTVPFEDSEKLGTATIEAYNLSPATRNSIKKGMPIILNAGYEGDI | -0.425
HMKRTMVEAAMVAKLFNLTVRRIQQLTQDGVLTTELVDKKRRYDLLLTVQKYIAYLQEKVAK | -3.41
